Laboratory results reported in US8410061.

Experiments:
[1] = target: patched-1 of C3H10T1/2 cells (endogenous hedgehog receptor) (mouse (cell line C3H10T1/2 is stated to be mouse)) (UniProt Q61115); assay: cell-based or functional assay
[2] = target: Myc-tagged patched-1 on transiently transfected human embryonic kidney 293 (EBNA-293) cells; assay: FACS competition with Shh-Ig (5 nM) on 293 cells transfected with Myc-tagged patched-1
Sequence of Myc-tagged patched-1 on transiently transfected human embryonic kidney 293 (EBNA-293) cells (Q61115 whole entry): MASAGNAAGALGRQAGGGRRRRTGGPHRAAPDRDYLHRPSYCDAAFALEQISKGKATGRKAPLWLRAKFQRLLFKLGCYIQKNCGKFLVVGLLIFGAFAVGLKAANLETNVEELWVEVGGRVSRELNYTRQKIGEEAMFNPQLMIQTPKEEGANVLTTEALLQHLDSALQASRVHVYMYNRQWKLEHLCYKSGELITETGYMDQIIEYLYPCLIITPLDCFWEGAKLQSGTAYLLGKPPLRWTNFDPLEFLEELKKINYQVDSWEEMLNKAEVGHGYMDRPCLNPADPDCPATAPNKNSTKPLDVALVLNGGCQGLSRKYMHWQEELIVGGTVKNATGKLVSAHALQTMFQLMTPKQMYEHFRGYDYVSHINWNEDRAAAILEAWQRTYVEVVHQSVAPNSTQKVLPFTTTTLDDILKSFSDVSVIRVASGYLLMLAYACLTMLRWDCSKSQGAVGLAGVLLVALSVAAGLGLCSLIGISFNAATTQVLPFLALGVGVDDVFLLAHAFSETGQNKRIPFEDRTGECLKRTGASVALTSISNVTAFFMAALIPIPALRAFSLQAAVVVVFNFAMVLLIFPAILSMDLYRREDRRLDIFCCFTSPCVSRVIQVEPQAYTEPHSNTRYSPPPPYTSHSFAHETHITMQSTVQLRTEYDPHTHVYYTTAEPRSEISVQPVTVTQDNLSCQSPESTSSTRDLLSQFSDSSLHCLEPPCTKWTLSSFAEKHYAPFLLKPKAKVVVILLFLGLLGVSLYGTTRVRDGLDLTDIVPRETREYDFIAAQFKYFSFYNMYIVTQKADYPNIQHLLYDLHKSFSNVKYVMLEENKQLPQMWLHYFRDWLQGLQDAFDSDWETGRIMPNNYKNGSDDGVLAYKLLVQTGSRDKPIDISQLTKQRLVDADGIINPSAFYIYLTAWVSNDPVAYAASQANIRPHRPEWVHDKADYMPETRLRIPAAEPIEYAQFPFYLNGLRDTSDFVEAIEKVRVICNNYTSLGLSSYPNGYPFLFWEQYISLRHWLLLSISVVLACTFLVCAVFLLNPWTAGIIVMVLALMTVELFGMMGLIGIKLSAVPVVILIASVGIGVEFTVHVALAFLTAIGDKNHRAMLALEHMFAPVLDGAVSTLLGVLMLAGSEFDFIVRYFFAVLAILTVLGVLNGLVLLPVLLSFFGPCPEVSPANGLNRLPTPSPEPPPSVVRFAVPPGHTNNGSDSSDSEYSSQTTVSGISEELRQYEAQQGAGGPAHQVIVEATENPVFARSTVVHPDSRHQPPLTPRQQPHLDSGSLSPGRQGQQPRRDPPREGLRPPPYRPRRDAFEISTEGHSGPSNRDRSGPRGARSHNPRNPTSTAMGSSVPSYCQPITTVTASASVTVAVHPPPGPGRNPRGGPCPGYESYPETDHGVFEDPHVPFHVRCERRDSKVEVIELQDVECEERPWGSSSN

Sequence of patched-1 of C3H10T1/2 cells (endogenous hedgehog receptor) (mouse (cell line C3H10T1/2 is stated to be mouse)) (Q61115 whole entry): as above

## Shh (N-10), Sonic hedgehog variant lacking the first 10 N-terminal amino acids (from UniProt Q15465 34-197) (ligand)
[1]
  block of AP induction by mature Shh (2.5 ug/ml) in C3H10T1/2 cells, IC50: 250 nM

## Shh (N-9/C-3), Sonic hedgehog variant lacking … from the N-terminus and SGG from the C-terminus (from UniProt Q15465 33-194) (ligand)
[1]
  block of AP activity induced by mature Shh in C3H10T1/2 cells, IC50: 80 nM

## Shh (C1S), Sonic hedgehog N-terminal domain with the N-terminal cysteine replaced by serine (from UniProt Q15465 25-197) (ligand)
[1]
  block of AP induction by human Shh in C3H10T1/2 cells, IC50: 0.5 mM
[2]
  IC50: 1 nM

## Shh (N-5), Sonic hedgehog variant lacking residues CGPGR from the N-terminus (from UniProt Q15465 29-197) (ligand)
[1]
  block of AP activity induced by mature Shh in C3H10T1/2 cells, IC50: 80 nM

## human mature Sonic hedgehog N-terminal domain (from UniProt Q15465 24-197) (ligand)
[2]
  IC50: 3.5 nM
